Article PMC9890643

Biological target: apolipoprotein A-1 (ApoA1) (UniProt P02647 25-267)
Assay: electrochemical aptasensor

Sequence of apolipoprotein A-1 (ApoA1) (P02647 25-267): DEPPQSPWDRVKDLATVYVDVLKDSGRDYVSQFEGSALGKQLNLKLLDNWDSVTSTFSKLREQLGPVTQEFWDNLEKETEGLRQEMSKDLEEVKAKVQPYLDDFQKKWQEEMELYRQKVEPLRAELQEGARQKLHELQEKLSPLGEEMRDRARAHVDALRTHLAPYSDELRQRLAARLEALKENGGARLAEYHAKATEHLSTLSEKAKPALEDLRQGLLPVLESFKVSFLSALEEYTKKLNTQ

CCTCGGCACGTTCTCAGTAGCGCTCGCTGGTCATCCCACA (ssDNA, 5'-thiol-C6) [ApoA1 thiolated aptamer]: binds.
